# Test results from article PMC10557868, “Piperacetazine Directly Binds to the PAX3::FOXO1 Fusion Protein and Inhibits Its Transcriptional Activity”.
# B1: PAX3::FOXO1-specific oligonucleotide (dsDNA)
# DNA 1: ACCGTGACTAATTTAATTAGTCACG
# DNA 2: CGTGACTAATTAAATTAGTCACGGT
# B2: EWS::FLI1-specific oligonucleotide (GGAA repeats) (dsDNA)
# DNA 1: ACCGGAAGGAAGGAAGGAAGGAAGGAAGGAAGTG
# DNA 2: CACTTCCTTCCTTCCTTCCTTCCTTCCTTCCGGT
# What was measured:
# [1] = molecular target: T1, PAX3::FOXO1 fusion protein (UniProt P23760 1-391+Q12778:211-655, internal_change); assay: SPR; SPR, Biacore T-200, CM5 chip; PBS-P (20 mM phosphate pH 7.4, 137 mM NaCl, 2.7 mM KCl, 0.05% P20) stated as immobilization running buffer, with 5% DMSO for small molecules; temperature not stated; settings: protein: recombinant; tags: C-terminal 12xHis; N-terminal internal HA tag; blunt
# [2] = molecular target: T1, PAX3::FOXO1 fusion protein; assay: SPR; DNA 1.25-80 nM; SPR, Biacore T-200, CM5 chip; PBS-P (20 mM phosphate pH 7.4, 137 mM NaCl, 2.7 mM KCl, 0.05% P20) stated as immobilization running buffer, with 5% DMSO for small molecules; temperature not stated; settings: protein: recombinant; tags: C-terminal 12xHis; N-terminal internal HA tag; blunt
# T1 sequence (P23760 other isoform, or with tags, fused parts or gaps): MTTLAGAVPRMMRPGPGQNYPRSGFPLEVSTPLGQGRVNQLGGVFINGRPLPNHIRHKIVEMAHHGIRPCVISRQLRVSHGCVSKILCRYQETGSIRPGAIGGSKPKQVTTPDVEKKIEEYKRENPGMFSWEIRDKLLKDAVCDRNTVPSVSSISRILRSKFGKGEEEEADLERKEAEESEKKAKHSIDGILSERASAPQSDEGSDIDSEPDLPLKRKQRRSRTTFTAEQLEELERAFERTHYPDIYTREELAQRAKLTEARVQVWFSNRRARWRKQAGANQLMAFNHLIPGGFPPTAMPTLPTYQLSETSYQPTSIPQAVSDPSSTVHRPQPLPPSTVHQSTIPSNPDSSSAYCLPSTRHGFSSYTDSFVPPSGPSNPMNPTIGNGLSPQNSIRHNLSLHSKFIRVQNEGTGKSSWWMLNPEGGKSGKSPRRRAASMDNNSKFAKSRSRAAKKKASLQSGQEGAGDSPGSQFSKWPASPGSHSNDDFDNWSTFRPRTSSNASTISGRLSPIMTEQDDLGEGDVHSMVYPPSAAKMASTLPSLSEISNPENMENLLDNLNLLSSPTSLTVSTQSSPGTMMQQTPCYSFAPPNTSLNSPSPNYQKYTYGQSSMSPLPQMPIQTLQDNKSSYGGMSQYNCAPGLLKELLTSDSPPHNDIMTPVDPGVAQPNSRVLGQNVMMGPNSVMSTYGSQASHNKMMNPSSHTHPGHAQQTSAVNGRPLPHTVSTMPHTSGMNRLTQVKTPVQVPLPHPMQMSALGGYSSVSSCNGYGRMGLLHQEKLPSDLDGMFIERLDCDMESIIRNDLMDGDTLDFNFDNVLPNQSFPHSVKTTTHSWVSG
binder,measurement,setting,value
B1,Kd,[1],6.3 nM
B2,binding result,[2],no binding
